Assay results from IntAct's records for PubMed 25416944.

Target: vhl_human VHL (UniProt P40337)
Sequence (P40337 whole entry, looked up): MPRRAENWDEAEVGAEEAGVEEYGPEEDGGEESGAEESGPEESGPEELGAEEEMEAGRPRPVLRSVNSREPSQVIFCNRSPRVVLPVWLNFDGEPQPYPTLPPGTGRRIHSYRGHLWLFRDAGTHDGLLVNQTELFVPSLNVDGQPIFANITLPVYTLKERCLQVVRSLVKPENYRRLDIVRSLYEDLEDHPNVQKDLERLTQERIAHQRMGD

Chain of T-complex protein 1 subunit alpha (Saccharomyces cerevisiae), P12612 L305A (P12612 whole entry L305A, one chain of several): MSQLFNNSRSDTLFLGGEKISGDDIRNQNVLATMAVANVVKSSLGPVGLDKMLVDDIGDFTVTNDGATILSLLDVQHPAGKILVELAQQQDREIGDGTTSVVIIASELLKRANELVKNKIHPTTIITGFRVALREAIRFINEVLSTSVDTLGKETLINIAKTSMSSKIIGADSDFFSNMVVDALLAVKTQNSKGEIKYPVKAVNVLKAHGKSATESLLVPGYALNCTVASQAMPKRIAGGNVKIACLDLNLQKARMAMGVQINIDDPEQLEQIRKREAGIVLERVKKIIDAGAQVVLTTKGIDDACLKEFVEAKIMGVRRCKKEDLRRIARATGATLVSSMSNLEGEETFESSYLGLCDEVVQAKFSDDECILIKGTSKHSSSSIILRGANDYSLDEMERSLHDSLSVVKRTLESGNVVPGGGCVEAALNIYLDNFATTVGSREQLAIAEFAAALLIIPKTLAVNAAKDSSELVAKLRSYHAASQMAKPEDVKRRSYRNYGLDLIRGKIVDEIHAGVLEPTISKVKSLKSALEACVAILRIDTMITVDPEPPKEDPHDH
Chain of T-complex protein 1 subunit alpha (Saccharomyces cerevisiae), P12612 R319A (P12612 whole entry R319A, one chain of several): as the sequence (P12612 whole entry L305A, one chain of several) above, with A305L, R319A counted along it
Chain of T-complex protein 1 subunit alpha (Saccharomyces cerevisiae), P12612 L326A (P12612 whole entry L326A, one chain of several): as the sequence (P12612 whole entry L305A, one chain of several) above, with A305L, L326A counted along it
Chain of T-complex protein 1 subunit alpha (Saccharomyces cerevisiae), P12612 V311A (P12612 whole entry V311A, one chain of several): as the sequence (P12612 whole entry L305A, one chain of several) above, with A305L, V311A counted along it

## T-complex protein 1 subunit alpha (Saccharomyces cerevisiae), P12612 L305A
  effect of a mutation on the interaction: decreasing interaction strength

## T-complex protein 1 subunit alpha (Saccharomyces cerevisiae), P12612 V311A
  effect of a mutation on the interaction: decreasing interaction strength

## T-complex protein 1 subunit alpha (Saccharomyces cerevisiae), P12612 R319A
  effect of a mutation on the interaction: decreasing interaction strength

## T-complex protein 1 subunit alpha (Saccharomyces cerevisiae), P12612 L326A
  effect of a mutation on the interaction: decreasing interaction strength
